# Test results published in the Immune Epitope Database (IEDB).
# How the values were obtained:
# HLA-B*15:01 [1] = experiment: IEDB peptide-MHC binding, purified MHC/competitive/fluorescence; ≥ and ≤ were set here for values at or beyond the usual limits of such assays
# HLA-A*30:01 = experiment: IEDB peptide-MHC binding, purified MHC/competitive/radioactivity; filed as Kd, often an IC50 or EC50 that approximates it; ≥ and ≤ were set here for values at or beyond the usual limits of such assays; settings: source organism: Vaccinia virus WR
# HLA-B*15:03 = experiment: as above; settings: source organism: Vaccinia virus WR
# HLA-B*44:02 = experiment: as above
# HLA-B*44:03 = experiment: as above
# HLA-B*15:01 [2] = experiment: as above; settings: source organism: Vaccinia virus WR
# HLA-A*32:01 = experiment: as above; settings: source organism: Vaccinia virus WR
# HLA-B*08:01 = experiment: as above; settings: source organism: Vaccinia virus WR
# HLA-A*03:01 [3] = experiment: IEDB peptide-MHC binding, purified MHC/competitive/fluorescence; filed as Kd, often an IC50 or EC50 that approximates it; ≥ and ≤ were set here for values at or beyond the usual limits of such assays
# HLA-A*02:01 [4] = experiment: IEDB peptide-MHC binding, purified MHC/competitive/fluorescence; ≥ and ≤ were set here for values at or beyond the usual limits of such assays
# HLA-A*24:02 = experiment: as above
# HLA-A*02:01 [5] = experiment: IEDB peptide-MHC binding, purified MHC/direct/fluorescence; filed as Kd, often an IC50 or EC50 that approximates it; ≥ and ≤ were set here for values at or beyond the usual limits of such assays; settings: source organism: Orthohantavirus andesense
# HLA-A*02:19 = experiment: as above; settings: source organism: Convict Creek 107 virus
# HLA-A*03:01 [6] = experiment: as above; settings: source organism: Convict Creek 107 virus
# HLA-A*26:01 = experiment: IEDB peptide-MHC binding, purified MHC/competitive/fluorescence; filed as Kd, often an IC50 or EC50 that approximates it; ≥ and ≤ were set here for values at or beyond the usual limits of such assays; settings: source organism: Orthohantavirus sinnombreense
# HLA-B*15:17 = experiment: as above; settings: source organism: Orthohantavirus sinnombreense
# HLA-B*18:01 = experiment: as above; settings: source organism: Orthohantavirus sinnombreense
# HLA-B*27:03 = experiment: as above; settings: source organism: Orthohantavirus sinnombreense
# HLA-B*39:01 = experiment: as above; settings: source organism: Orthohantavirus sinnombreense
# HLA-B*46:01 = experiment: as above; settings: source organism: Orthohantavirus sinnombreense
# HLA-B*51:01 = experiment: as above; settings: source organism: Orthohantavirus sinnombreense
# HLA-B*57:01 = experiment: as above; settings: source organism: Orthohantavirus sinnombreense
# HLA-B*15:01 [7] = experiment: as above; settings: source organism: Salmonella enterica subsp. enterica serovar Typhi
# HLA-B*40:01 = experiment: IEDB peptide-MHC binding, purified MHC/competitive/radioactivity; filed as Kd, often an IC50 or EC50 that approximates it; ≥ and ≤ were set here for values at or beyond the usual limits of such assays; settings: source organism: Dengue virus 1 Singapore/S275/1990
# HLA-B*48:01 = experiment: IEDB peptide-MHC binding, purified MHC/direct/fluorescence; filed as Kd, often an IC50 or EC50 that approximates it; ≥ and ≤ were set here for values at or beyond the usual limits of such assays
# [8] = source organism: Dengue virus 3 Martinique/1243/1999
# [9] = source organism: Zaire ebolavirus
# [10] = source organism: Dengue virus 1 Singapore/S275/1990
# [11] = source organism: Dengue virus 1 Brazil/97-11/1997
# [12] = source organism: Vaccinia virus WR
# [13] = source organism: Dengue virus 2 Jamaica/1409/1983
# [14] = source organism: Vaccinia virus Copenhagen
# [15] = source organism: Sudan ebolavirus
# [16] = source organism: Dengue virus 4 Philippines/H241/1956
sequence,measurement,setting,value
SMFLMTATL,IC50,HLA-B*15:01 [1]; source organism: Variola virus,1120 nM
RTRNMFRKK,Kd,HLA-A*30:01,0.0892 nM
same,Kd,HLA-B*15:03,≥ 51200 nM
KEEHNSTWHY,Kd,HLA-B*44:02; [8],183 nM
same,Kd,HLA-B*44:03; [8],10500 nM
FINMTGNHF,Kd,HLA-B*15:01 [2],16.1 nM
same,Kd,HLA-B*15:03,34.2 nM
KQYKFYNQI,Kd,HLA-A*30:01,1340 nM
same,Kd,HLA-A*32:01,10600 nM
same,Kd,HLA-B*08:01,≥ 77700 nM
same,Kd,HLA-B*15:01 [2],6630 nM
same,Kd,HLA-B*15:03,121 nM
RMLHLSQMH,Kd,HLA-A*03:01 [3]; source organism: Bacillus anthracis str. A0488,25.8 nM
FQQTNAMVT,IC50,HLA-A*02:01 [4]; [9],11000 nM
same,IC50,HLA-B*15:01 [1]; [9],36100 nM
VGRVNPGTY,IC50,HLA-A*24:02; source organism: Variola virus,5450 nM
same,IC50,HLA-B*15:01 [1]; source organism: Variola virus,29700 nM
LQYVHINEL,Kd,HLA-B*15:03,3.66 nM
NYLFGGFST,IC50,HLA-A*02:01 [4]; source organism: Variola virus,23400 nM
same,IC50,HLA-A*24:02; source organism: Variola virus,1650 nM
same,IC50,HLA-B*15:01 [1]; source organism: Variola virus,≥ 289000 nM
SEMIIPKIY,Kd,HLA-B*44:02; [10],8.61 nM
same,Kd,HLA-B*44:03; [10],12.8 nM
VVNYEAGEW,IC50,HLA-A*24:02; [9],≥ 75500 nM
same,IC50,HLA-B*15:01 [1]; [9],≥ 119000 nM
ELYMYFNHV,Kd,HLA-B*08:01,238 nM
same,Kd,HLA-B*15:01 [2],1330 nM
same,Kd,HLA-B*15:03,414 nM
KEAVEDERFW,Kd,HLA-B*44:02; [11],45.4 nM
same,Kd,HLA-B*44:03; [11],305 nM
VINRLGADL,IC50,HLA-A*02:01 [4]; [12],≥ 76600 nM
same,IC50,HLA-B*15:01 [1]; [12],≥ 105000 nM
EEEQTLTILI,Kd,HLA-B*44:02; [13],17.3 nM
same,Kd,HLA-B*44:03; [13],128 nM
WEGNPGRFW,Kd,HLA-B*44:02; [13],12.9 nM
same,Kd,HLA-B*44:03; [13],89.4 nM
VVANVIGLS,IC50,HLA-A*02:01 [4]; [14],26600 nM
same,IC50,HLA-B*15:01 [1]; [14],46900 nM
KLHRYIDSM,Kd,HLA-A*02:01 [5],34.2 nM
same,Kd,HLA-A*02:19,≥ 20000 nM
same,Kd,HLA-A*03:01 [6],≥ 20000 nM
same,Kd,HLA-A*26:01,≥ 20000 nM
same,Kd,HLA-B*15:17,≥ 20000 nM
same,Kd,HLA-B*18:01,≥ 20000 nM
same,Kd,HLA-B*27:03,≥ 20000 nM
same,Kd,HLA-B*39:01,≥ 20000 nM
same,Kd,HLA-B*46:01,≥ 20000 nM
same,Kd,HLA-B*51:01,≥ 20000 nM
same,Kd,HLA-B*57:01,≥ 20000 nM
LEFNTPFVF,Kd,HLA-B*15:03,10.4 nM
MEDKTPVESW,Kd,HLA-B*44:02; [13],33.2 nM
same,Kd,HLA-B*44:03; [13],70.9 nM
SMKTVFQVF,Kd,HLA-B*08:01,179 nM
same,Kd,HLA-B*15:01 [2],1.57 nM
same,Kd,HLA-B*15:03,3.81 nM
IETPNELSF,Kd,HLA-B*15:03,288 nM
KMSFLPIIF,Kd,HLA-A*32:01,6.72 nM
same,Kd,HLA-B*15:03,0.08 nM
NERGKSLLF,Kd,HLA-B*44:02; [8],467 nM
same,Kd,HLA-B*44:03; [8],122 nM
RQMVNDMIF,Kd,HLA-B*15:03,1.25 nM
AMAAAGMMY,Kd,HLA-A*03:01 [3]; source organism: Salmonella enterica subsp. enterica serovar Typhi,698 nM
same,Kd,HLA-B*15:01 [7],332 nM
SQYANCSSI,IC50,HLA-A*24:02; [14],≥ 82700 nM
same,IC50,HLA-B*15:01 [1]; [14],7410 nM
EQFVGTNSI,Kd,HLA-B*15:03,194 nM
ASTNLGSSF,Kd,HLA-B*15:03,164 nM
FQLNDTIHL,IC50,HLA-A*02:01 [4]; [15],1520 nM
same,IC50,HLA-A*24:02; [15],36900 nM
same,IC50,HLA-B*15:01 [1]; [15],50500 nM
CMKTFFGWK,Kd,HLA-A*03:01 [3]; source organism: Influenza A virus (A/Hong Kong/1774/99(H3N2)),35.4 nM
AENHHHATM,Kd,HLA-B*40:01,10.1 nM
same,Kd,HLA-B*44:02; [10],27.3 nM
same,Kd,HLA-B*44:03; [10],115 nM
KLLSHFYPA,Kd,HLA-A*30:01,3300 nM
same,Kd,HLA-A*32:01,129 nM
same,Kd,HLA-B*08:01,81 nM
same,Kd,HLA-B*15:01 [2],38.7 nM
same,Kd,HLA-B*15:03,5.4 nM
LHHAYQGDY,IC50,HLA-B*15:01 [1]; [9],≥ 206000 nM
CMIRWLGGI,IC50,HLA-A*02:01 [4]; [12],428 nM
same,IC50,HLA-A*24:02; [12],4000 nM
same,IC50,HLA-B*15:01 [1]; [12],30300 nM
RRLAATTEK,Kd,HLA-B*48:01; source organism: West Nile virus,≥ 20000 nM
LYRPNIPLK,Kd,HLA-A*30:01,3.45 nM
same,Kd,HLA-A*32:01,≥ 77800 nM
same,Kd,HLA-B*08:01,≥ 33300 nM
same,Kd,HLA-B*15:01 [2],≥ 55800 nM
same,Kd,HLA-B*15:03,≥ 69200 nM
FKINIFMAF,Kd,HLA-B*08:01,10600 nM
same,Kd,HLA-B*15:03,10.2 nM
KKVYTFFKF,Kd,HLA-B*15:03,3.63 nM
WKWFYKKYL,Kd,HLA-B*48:01; source organism: Campylobacter jejuni subsp. jejuni HB93-13,271 nM
GEGLHRLGY,Kd,HLA-B*44:02; [16],11.5 nM
same,Kd,HLA-B*44:03; [16],17.6 nM
YDEDNPYKTW,Kd,HLA-B*44:02; [11],470 nM
